B1: KL2B467 (Fab) (antibody, V domains shown)
VH: QVQLVESGGGVVQPGRSLRLSCAASGFTFSYYGMHWVRQAPGKGLEWVAFISYDGSNKYYADSVKGRFTISRDNSKNTLYLQMNSLRAEDTAVYYCAHLPYSGSYWAFDYWGQGTQVTVSS
VL: QSVLTQPPSVSVAPGQTASITCGGDNIGSKSVHWYQQKPGQAPVLVVYDNSDRPSGIPERFSGSNSGTTATLTISRVEAGDEADYYCQVWDSSSDHPVVFGGGTKVTV
B2: KL2B242 (Fab) (antibody, V domains shown)
VH: QVQLQESGPGLVKPSETLSLTCTVSGGSISSYYWSWLRQPAGSGLEWIGRLYVSGFTNYNPSLKSRVTLSLDPSRNQLSLKLSSVTAADTAVYYCAGDSGNYWGWFDPWGQGTLVTVSS
VL: SYELTQPPSVSVSPGETASITCSGDQLGENYACWYQQKPGQSPVLVIYQDSKRPSGIPERFSGSNSGNTATLTISGTQALDEADYYCQAWDNSIVVFGGGTKLTVL
B3: KL2B53 (Fab) (antibody, V domains shown)
VH: EVQLVESGGGVVQPGRSLRLSCVASGFTFSSYDIHWVRQAPGKGLEWVAIISYDGSKKDYTDSVKGRFTISRDNSKNTLYLQMDSLRVEDSAVYSCARESGWSHYYYYGMDVWGQGTMVTVSS
VL: DIVMTQSPSSLSASVGDRVTITCRASQDISNYLAWYQQKPGKVPKFLIYAASTLHSGVPSRFSGSGSGTDFTLTISSLQPEDVATYYCQKYNSAPYTFGQGTRLEIK

Assay: Thermal stability (Tm) by Differential Scanning Fluorimetry (NanoDSF)
Type: physicochemical
Details: 0.5 mg/mL in Phosphate Buffered Saline, pH 7.4
Protocol: Thermal stability was determined by Differential Scanning Fluorimetry (NanoDSF) using an automated Prometheus instrument. NanoDSF was used to measure Tm of molecules at a concentration of 0.5 mg/mL in Phosphate Buffered Saline, pH 7.4. Measurements were made by loading samples into 24 well capillary from a 384 well sample plate. Duplicate runs were performed for each sample. The thermal scans span from 20° C. to 95° C. at a rate of 1.0° C./minute. Intrinsic tryptophan and tyrosine fluorescence were monitored at the emission wavelengths of 330 nm and 350 nm, and the F350/F330 nm ratio were plotted against temperature to generate unfolding curves.

Molecule | Tm (° C.) [°C]
B1 | >70
B2 | >70
B3 | >70
